In patent publication US20100260668A1 (published 2010):
“And” between values parts separate entries of the source, which are not always exact repeats. Equal entries are not always repeated. Each block holds one binder with its values, some of them ahead of it.

What was measured:
[1] = target: T1, his-tagged, recombinant RON protein (R&D Systems # 1947-MS) (UniProt Q04912 25-957, limits assumed); test: IgG-Fc capture ELISA, his-tagged RON; N-terminal VD
T1 construct: extracellular domain; also called MSP Receptor ECD-His tag

[2] = target: T2, biotin-labeled human IGF2 (human, UniProt P01344 25-91, biotin-labeled); test: capture ELISA, antibody captured by anti-human Fc, biotin-labeled IGF2
[3] = target: T3, biotin-labeled human IGF1 (human, UniProt P05019 49-118, biotin-labeled); test: capture ELISA, antibody captured by anti-human Fc, biotin-labeled IGF1
[4] = target: T4, IGF2 (IGF-2) (UniProt P01344 25-91); test: Direct Bind ELISA, antigen on plate; second value of IGF1/IGF2 cell
T4 construct: Bought reagent

[5] = target: T5, IGF1 (IGF-I) (UniProt P05019 49-118); test: Direct Bind ELISA, antigen on plate; first value of IGF1/IGF2 cell
T5 construct: Bought reagent

[6] = target: T3, biotin-labeled human IGF1; test: capture ELISA, DVD-Ig captured by anti-human Fc, biotin-labeled IGF1; C-terminal VD
[7] = target: T2, biotin-labeled human IGF2; test: capture ELISA, DVD-Ig captured by anti-human Fc, biotin-labeled IGF2; C-terminal VD
[8] = target: biotinylated VEGF (UniProt P15692-4 27-191, limits assumed, biotinylated); test: capture ELISA, DVD-Ig captured by anti-human Fc, biotinylated VEGF; N-terminal VD
biotinylated VEGF, sequence (P15692 other isoform, or with tags, fused parts or gaps limits assumed): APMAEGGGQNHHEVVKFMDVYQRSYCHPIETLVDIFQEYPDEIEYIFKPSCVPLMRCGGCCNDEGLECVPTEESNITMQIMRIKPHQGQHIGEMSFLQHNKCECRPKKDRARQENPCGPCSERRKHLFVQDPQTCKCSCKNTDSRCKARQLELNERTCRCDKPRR

[9] = target: T6, biotin-labeled human DLL4 extracellular domain (human, UniProt Q9NR61 27-529, biotin-labeled); test: capture ELISA, DVD-Ig captured by anti-human Fc, biotin-labeled human DLL4 ECD; C-terminal VD
T6 construct: extracellular domain

[10] = target: T7, HGF (HGF-His tag) (UniProt P14210 32-728); test: Direct Bind ELISA, antigen on plate
T7 construct: Bought reagent
T7 sequence (P14210 32-728 limits assumed): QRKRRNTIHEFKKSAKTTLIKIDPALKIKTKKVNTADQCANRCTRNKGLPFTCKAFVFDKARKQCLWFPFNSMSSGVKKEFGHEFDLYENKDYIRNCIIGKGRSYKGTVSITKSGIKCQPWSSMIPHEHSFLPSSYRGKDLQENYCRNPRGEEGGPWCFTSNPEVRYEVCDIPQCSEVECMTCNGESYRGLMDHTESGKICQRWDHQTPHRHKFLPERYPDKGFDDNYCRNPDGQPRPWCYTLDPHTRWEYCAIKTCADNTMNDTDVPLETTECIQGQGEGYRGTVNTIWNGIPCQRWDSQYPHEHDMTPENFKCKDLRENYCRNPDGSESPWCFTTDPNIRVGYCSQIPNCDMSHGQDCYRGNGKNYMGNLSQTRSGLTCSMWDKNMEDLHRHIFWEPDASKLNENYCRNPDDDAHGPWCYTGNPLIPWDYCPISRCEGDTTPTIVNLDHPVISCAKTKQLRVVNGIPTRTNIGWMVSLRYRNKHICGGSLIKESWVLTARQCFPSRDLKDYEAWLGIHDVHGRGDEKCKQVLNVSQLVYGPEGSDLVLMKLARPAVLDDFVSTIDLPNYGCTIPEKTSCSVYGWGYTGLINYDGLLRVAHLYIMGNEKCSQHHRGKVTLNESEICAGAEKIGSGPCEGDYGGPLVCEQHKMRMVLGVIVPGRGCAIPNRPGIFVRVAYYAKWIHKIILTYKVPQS

[11] = target: T8, PlGF (UniProt P49763-2 21-149, limits assumed); test: direct bind ELISA, antigen on plate; reference antibody
T8 construct: Bought antigen coated on the ELISA plate; also called Placental GF; placental growth factor
T8 sequence (looked up): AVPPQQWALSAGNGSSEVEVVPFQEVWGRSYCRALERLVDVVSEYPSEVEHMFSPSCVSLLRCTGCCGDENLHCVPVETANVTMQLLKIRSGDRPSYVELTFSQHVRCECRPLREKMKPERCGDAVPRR

[12] = target: T9, IGF1R ECD (UniProt P08069 31-935, limits assumed); test: Direct Bind ELISA, antigen on plate
T9 construct: extracellular domain; Bought reagent

[13] = target: T10, IGF1R (antigen of the capture ELISA table) (UniProt P08069 31-932, limits assumed); test: antigen capture ELISA, IGF1R
T10 construct: No IGF1R capture ELISA method is described; also called IGFR

[14] = target: T11, VEGF (UniProt P15692 27-191, limits assumed); test: direct bind ELISA, antigen on plate; reference antibody
T11 construct: Bought antigen coated on the ELISA plate; also called vascular endothelial growth factor
T11 sequence (P15692 other isoform, or with tags, fused parts or gaps limits assumed): as the sequence (P15692 other isoform, or with tags, fused parts or gaps limits assumed) above

[15] = target: T12, VEGF 1-165 aa (UniProt P15692 27-191); test: direct bind ELISA (ref Ab)
T12 construct: Bought antigen coated on the ELISA plate
T12 sequence (P15692 other isoform, or with tags, fused parts or gaps limits assumed): as above

[16] = target: T13, ErbB3 on A431 cells (human, UniProt P21860 20-1342); test: cell-based or functional assay
[17] = target: T14, EGFR on A431 cells (human, UniProt P00533 25-1210); test: cell-based or functional assay
[18] = target: T13, ErbB3 on A431 cells; test: cell-based or functional assay; remark: listed apart in the source
[19] = target: T14, EGFR on A431 cells; test: cell-based or functional assay; remark: listed apart in the source
[20] = target: T15, RON (MSP Receptor ECD-His tag) (UniProt Q04912 25-957, limits assumed); test: Direct Bind ELISA, antigen on plate
T15 construct: extracellular domain; Bought reagent

[21] = target: T1, his-tagged, recombinant RON protein …; test: IgG-Fc capture ELISA, his-tagged RON

B1: DVD033 (bispecific antibody, human IgG1, kappa)
heavy: not shown
light: DVVMTQSPLSLPVTPGEPASISCRSSQSLLHSNGFNYVDWYLQKPGQSPHLLIYFGSYRASGVPDRFSGSGSGTDFTLKISRVEAEDVGVYYCMQALQTPPWTFGQGTKVEIRRTVAAPDIQMTQSPSSVSASVGDRVTITCRASQGISSWLAWYQQKPGKAPNLLIYEASSLQSGVPSRFGGSGSGTDFTLTISSLQPEDFATYYCQQANGFPWTFGQGTKVEIKRTVAAPSVFIFPPSDEQLKSGTASVVCLLNNFYPREAKVQWKVDNALQSGNSQESVTEQDSKDSTYSLSSTLTLSKADYEKHKVYACEVTHQGLSSPVTKSFNRGEC
notes: DVD-Ig; also called RON / HGF DVD-Ig; DVD033H
EC50 [1]: 2.5 nM

B2: AB010 (antibody, human IgG1, lambda, V domains shown)
VH: QVQLVQSGAEVKKPGASVKVSCKASGYTFTSYDINWVRQATGQGLEWMGWMNPNSGNTGYAQKFQGRVTMTRNTSISTAYMELSSLRSEDTAVYYCARDPYYYYYGMDVWGQGTTVTVSS
VL: QSVLTQPPSVSAAPGQKVTISCSGSSSNIENNHVSWYQQLPGTAPKLLIYDNNKRPSGIPDRFSGSKSGTSATLGITGLQTGDEADYYCETWDTSLSAGRVFGGGTKLTVLG
notes: also called IGF1,2 parent antibody
EC50 [2]: 10 nM and 18.1 nM
EC50 [3]: 4.8 nM

B4: DVD041 (bispecific antibody, human IgG1, lambda)
heavy: not shown
light: DIQMTQSPSSLSASVGDRVTITCSASQDISNYLNWYQQKPGKAPKVLIYFTSSLHSGVPSRFSGSGSGTDFTLTISSLQPEDFATYYCQQYSTVPWTFGQGTKVEIKRTVAAPQSVLTQPPSVSAAPGQKVTISCSGSSSNIENNHVSWYQQLPGTAPKLLIYDNNKRPSGIPDRFSGSKSGTSATLGITGLQTGDEADYYCETWDTSLSAGRVFGGGTKLTVLGQPKAAPSVTLFPPSSEELQANKATLVCLISDFYPGAVTVAWKADSSPVKAGVETTTPSKQSNNKYAASSYLSLTPEQWKSHRSYSCQVTHEGSTVEKTVAPTECS
notes: DVD-Ig; also called VEGF / IGF1,2 DVD-Ig; DVD041H
EC50 [6]: 381 nM
EC50 [7]: 7340 nM
EC50 [8]: 0.7 nM

B5: DVD043 (bispecific antibody, human IgG1, kappa)
heavy: not shown
light: DIQMTQSPSSLSASVGDRVTITCSASQDISNYLNWYQQKPGKAPKVLIYFTSSLHSGVPSRFSGSGSGTDFTLTISSLQPEDFATYYCQQYSTVPWTFGQGTKVEIKRTVAAPDIQMTQSPSSLSASVGDRVTITCRASQDVSTAVAWYQQKPGKAPKLLIYSASFLYSGVPSRFSGSGSGTDFTLTISSLQPEDFATTYYCQQSYTGTVTFGQGTKVEIKRTVAAPSVFIFPPSDEQLKSGTASVVCLLNNFYPREAKVQWKVDNALQSGNSQESVTEQDSKDSTYSLSSTLTLSKADYEKHKVYACEVTHQGLSSPVTKSFNRGEC
notes: DVD-Ig; also called VEGF / DLL4 DVD-Ig; DVD043H
EC50 [9]: 0.5 nM
EC50 [8]: 0.2 nM

B8: AB011 (anti-IGF1R (seq. 1) parent antibody) (antibody, IgG1, V domains shown)
VH: EVQLLESGGGLVQPGGSLRLSCTASGFTFSSYAMNWVRQAPGKGLEWVSAISGSGGTTFYADSVKGRFTISRDNSRTTLYLQMNSLRAEDTAVYYCAKDLGWSDSYYYYYGMDVWGQGTTVTVSS
VL: DIQMTQFPSSLSASVGDRVTITCRASQGIRNDLGWYQQKPGKAPKRLIYAASRLHRGVPSRFSGSGSGTEFTLTISSLQPEDFATYYCLQHNSYPCSFGQGTKLEIKR
notes: HC vector V1 (wild-type hIgG1 constant), LC vector V2 (kappa constant); also called AB011VH; AB011VL
EC50 [12]: 0.28 nM

B10: AB071 (antibody, human IgG1, kappa, L234A L235A, V domains shown)
VH: EVQLVESGGGLVQPGGSLRLSCAASGFTINASWIHWVRQAPGKGLEWVGAIYPYSGYTNYADSVKGRFTISADTSKNTAYLQMNSLRAEDTAVYYCARWGHSTSPWAMDYWGQGTLVTVSS
VL: DIQMTQSPSSLSASVGDRVTITCRASQVIRRSLAWYQQKPGKAPKLLIYAASNLASGVPSRFSGSGSGTDFTLTISSLQPEDFATYYCQQSNTSPLTFGQGTKVEIKR
notes: also called AB071VH; AB071VL
EC50 [14]: 20.9 nM

B12: AB008 (anti-CD-22 antibody, used as control) (antibody, human IgG1, kappa, V domains shown)
VH: QVQLVQSGAEVKKPGSSVKVSCKASGYTFTSYWLHWVRQAPGQGLEWIGYINPRNDYTEYNQNFKDKATITADESTNTAYMELSSLRSEDTAFYFCARRDITTFYWGQGTTVTVSS
VL: DIQLTQSPSSLSASVGDRVTMSCKSSQSVLYSANHKNYLAWYQQKPGKAPKLLIYWASTRESGVPSRFSGSGSGTDFTFTISSLQPEDIATYYCHQYLSSWTFGGGTKLEIKR
Inhibition Of A431 Proliferation (% Inhibition At 21.6 nM Ab/DVD) [16]: 6%
Inhibition Of A431 Proliferation (% Inhibition At 21.6 nM Ab/DVD) [17]: 6%
Inhibition Of ErbB3 Phosphorylation (% Inhibition At 60 nM Ab/DVD) [18]: 0%
Inhibition Of EGFR Phosphorylation (% Inhibition At 60 nM Ab/DVD) [19]: 4%

B14: AB005 (antibody, human IgG1, kappa, V domains shown)
VH: EVQLVQSGGGLVKPGGSLRLSCAASGFTFSSYAMHWVRQAPGKGLEWVAVISYDGSNKYYADSVKGRFTISRDNSKNTLYLQMNSLRAEDTAVYYCARFSGWPNNYYYYGMDVWGQGTTVTVSS
VL: DVVMTQSPLSLPVTPGEPASISCRSSQSLLHSNGFNYVDWYLQKPGQSPHLLIYFGSYRASGVPDRFSGSGSGTDFTLKISRVEAEDVGVYYCMQALQTPPWTFGQGTKVEIRR
EC50 [21]: 1.6 nM and 0.7 nM and 1.3 nM

More lines, now with the values ahead:

EC50 [4]: 10 nM and 18.1 nM
EC50 [5]: 4.77 nM
B3: AB010 (anti-IGF1,2 parent antibody) (antibody, IgG1, V domains shown)
VH: QVQLVQSGAEVKKPGASVKVSCKASGYTFTSYDINWVRQATGQGLEWMGWMNPNSGNTGYAQKFQGRVTMTRNTSISTAYMELSSLRSEDTAVYYCARDPYYYYYGMDVWGQGTTVTVSS
VL: QSVLTQPPSVSAAPGQKVTISCSGSSSNIENNHVSWYQQLPGTAPKLLIYDNNKRPSGIPDRFSGSKSGTSATLGITGLQTGDEADYYCETWDTSLSAGRVFGGGTKLTVLG
notes: HC vector V1 (wild-type hIgG1 constant), LC vector V3 (lambda constant); also called AB010VH; AB010VL

EC50 [10]: 0.22 nM and 0.19 nM
B6: AB012 (anti-HGF (seq. 1) parent antibody) (antibody, IgG1, V domains shown)
VH: QVQLVESGGGLVKPGGSLRLSCAASGFTFSDYYMSWIRQAPGKGLEWVSYISSSGSTIYYADSVKGRFTISRDNAKNSLYLQMNSLRAEDTAVYYCARDEYNSGWYVLFDYWGQGTLVTVSS
VL: DIQMTQSPSSVSASVGDRVTITCRASQGISSWLAWYQQKPGKAPNLLIYEASSLQSGVPSRFGGSGSGTDFTLTISSLQPEDFATYYCQQANGFPWTFGQGTKVEIKR
notes: HC vector V1 (wild-type hIgG1 constant), LC vector V2 (kappa constant); also called AB012VH; AB012VL

EC50 [11]: 0.13 nM and 0.14 nM
B7: AB047 (antibody, human IgG1, kappa, V domains shown)
VH: QVQLQQSGAELVKPGASVKISCKASGYTFTDYYINWVKLAPGQGLEWIGWIYPGSGNTKYNEKFKGKATLTIDTSSSTAYMQLSSLTSEDTAVYFCVRDSPFFDYWGQGTLLTVSS
VL: DIVLTQSPDSLAVSLGERVTMNCKSSQSLLNSGMRKSFLAWYQQKPGQSPKLLIYWASTRESGVPDRFTGSGSGTDFTLTISSVQAEDVAVYYCKQSYHLFTFGSGTKLEIKR
notes: also called AB047VH; AB047VL

EC50 [13]: 0.3 nM
B9: AB011 (antibody, human IgG1, kappa, V domains shown)
VH: EVQLLESGGGLVQPGGSLRLSCTASGFTFSSYAMNWVRQAPGKGLEWVSAISGSGGTTFYADSVKGRFTISRDNSRTTLYLQMNSLRAEDTAVYYCAKDLGWSDSYYYYYGMDVWGQGTTVTVSS
VL: DIQMTQFPSSLSASVGDRVTITCRASQGIRNDLGWYQQKPGKAPKRLIYAASRLHRGVPSRFSGSGSGTEFTLTISSLQPEDFATYYCLQHNSYPCSFGQGTKLEIKR

EC50 [15]: 40.4 nM and 80.4 nM and 79.5 nM
B11: AB071 (antibody, human IgG1, kappa, L234A L235A, V domains shown)
VH: EVQLVESGGGLVQPGGSLRLSCAASGFTINASWIHWVRQAPGKGLEWVGAIYPYSGYTNYADSVKGRFTISADTSKNTAYLQMNSLRAEDTAVYYCARWGHSTSPWAMDYWGQGTLVTVSS
VL: DIQMTQSPSSLSASVGDRVTITCRASQVIRRSLAWYQQKPGKAPKLLIYAASNLASGVPSRFSGSGSGTDFTLTISSLQPEDFATYYCQQSNTSPLTFGQGTKVEIKR
notes: Vectors V7/V2

EC50 [20]: 0.26 nM and 0.21 nM
B13: AB005 (anti-RON (seq. 1) parent antibody) (antibody, IgG1, V domains shown)
VH: EVQLVQSGGGLVKPGGSLRLSCAASGFTFSSYAMHWVRQAPGKGLEWVAVISYDGSNKYYADSVKGRFTISRDNSKNTLYLQMNSLRAEDTAVYYCARFSGWPNNYYYYGMDVWGQGTTVTVSS
VL: DVVMTQSPLSLPVTPGEPASISCRSSQSLLHSNGFNYVDWYLQKPGQSPHLLIYFGSYRASGVPDRFSGSGSGTDFTLKISRVEAEDVGVYYCMQALQTPPWTFGQGTKVEIRR
notes: HC vector V1 (wild-type hIgG1 constant), LC vector V2 (kappa constant); also called AB005VH; AB005VL
